Reference: publication PMC8865267 (mAbs, 2022)
Residue numbers refer to the chain shown, from its start. Where two headings read alike, the source gives them in different places.

B1: Ipi.105 IgG1, non-fucosylated (antibody, V domains shown)
VH: QVQLVESGGGVVQPGRSLRLSCAASGFTFSHYTMHWVRQAPGKGLEWVTFISYDGHNKYYADSVKGRFTISRDNSKNTLYLQMNSLRAEDTAIYYCARTGWLGPFDYWGQGTLVTVSS
VL: EIVLTQSPGTLSLSPGERATLSCRASQEVGESELAWYQQKPGQAPRLLIYGAFSRATGIPDRFSGSGSGTDFTLTISRLEPEDFAVYYCQQYGSSPWTFGQGTKVEIK
B2: Ipi.106 IgG1, non-fucosylated (antibody, V domains shown)
VH: B1 VH with T99H
VL: B1 VL
B3: Ipi.105 Fab (Fab, V domains shown)
VH: B1 VH
VL: B1 VL
B4: Ipi.106 Fab (Fab, V domains shown)
VH: B1 VH with T99H
VL: B1 VL

Key:
[1] = biological target: human CTLA-4 with C-terminal Myc, poly-histidine and BirA biotinylation tag (Homo sapiens (Human).) (UniProt P16410); test: SPR
[2] = biological target: CTLA-4 on BW cells expressing ~2,000 CTLA-4 receptor copies (Homo sapiens (Human)., UniProt P16410); test: flow cytometry on cells
CTLA-4 on BW cells expressing ~2,000 CTLA-4 receptor copies, sequence (P16410 36-223): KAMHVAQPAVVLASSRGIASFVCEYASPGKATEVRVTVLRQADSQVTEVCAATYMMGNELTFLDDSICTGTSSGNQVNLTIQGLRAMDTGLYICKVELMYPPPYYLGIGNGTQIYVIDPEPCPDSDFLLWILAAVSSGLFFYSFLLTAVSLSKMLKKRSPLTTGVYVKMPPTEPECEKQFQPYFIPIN

[3] = biological target: CTLA-4 of activated primary human CD4+CD25+ T cells (human (endogenous in primary CD4+CD25+ …, UniProt P16410)); test: flow cytometry on cells
CTLA-4 of activated primary human CD4+CD25+ T cells (human, sequence (P16410 36-223): as above

[4] = biological target: T1, human CTLA-4 with C-terminal poly-histidine tag (crystallography construct) (human, UniProt P16410, glycans trimmed with EndoH); test: crystal structure
T1 sequence (P16410 36-161): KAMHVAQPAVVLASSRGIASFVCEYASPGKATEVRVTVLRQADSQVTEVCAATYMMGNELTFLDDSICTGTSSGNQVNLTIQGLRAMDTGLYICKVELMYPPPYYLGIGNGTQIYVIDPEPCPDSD

[5] = biological target: T1, human CTLA-4 with C-terminal …; test: crystal structure; remark: listed apart in the source

Molecule	binding result [2]	binding result [3]	further results
ipilimumab Fab	–	–	Kd [1]: 40 nM
B1	binds	binds	–
B2	binds	binds	–
B3	–	–	binding result [4]: binds
B4	–	–	binding result [5]: binds
